Results as given in article PMC2955292 (Chemistry & biology, 2010).

Target: E. coli ClpP (Escherichia coli, UniProt P0A6G7)
Details: Figure S1A; SDS-PAGE

Chain of E. coli ClpP (P0A6G7 15-207): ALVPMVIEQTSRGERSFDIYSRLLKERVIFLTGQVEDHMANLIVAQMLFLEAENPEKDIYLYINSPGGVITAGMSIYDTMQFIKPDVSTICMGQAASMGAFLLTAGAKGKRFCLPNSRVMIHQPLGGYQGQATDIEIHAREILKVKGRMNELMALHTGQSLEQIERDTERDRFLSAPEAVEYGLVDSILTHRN

B1: ClpA: AAA+ family ATPase that assembles into hexameric rings and binds ClpP (protein)
chain: MLNQELELSLNMAFARAREHRHEFMTVEHLLLALLSNPSAREALEACSVDLVALRQELEAFIEQTTPVLPASEEERDTQPTLSFQRVLQRAVFHVQSSGRNEVTGANVLVAIFSEQESQAAYLLRKHEVSRLDVVNFISHGTRKDEPTQSSDPGSQPNSEEQAGGEERMENFTTNLNQLARVGGIDPLIGREKELERAIQVLCRRRKNNPLLVGESGVGKTAIAEGLAWRIVQGDVPEVMADCTIYSLDIGSLLAGTKYRGDFEKRFKALLKQLEQDTNSILFIDEIHTIIGAGAASGGQVDAANLIKPLLSSGKIRVIGSTTYQEFSNIFEKDRALARRFQKIDITEPSIEETVQIINGLKPKYEAHHDVRYTAKAVRAAVELAVKYINDRHLPDKAIDVIDEAGARARLMPVSKRKKTVNVADIESVVARIARIPEKSVSQSDRDTLKNLGDRLKMLVFGQDKAIEALTEAIKMARAGLGHEHKPVGSFLFAGPTGVGKTEVTVQLSKALGIELLRFDMSEYMERHTVSRLIGAPPGYVGFDQGGLLTDAVIKHPHAVLLLDEIEKAHPDVFNILLQVMDNGTLTDNNGRKADFRNVVLVMTTNAGVRETERKSIGLIHQDNSTDAMEEIKKIFTPEFRNRLDNIIWFDHLSTDVIHQVVDKFIVELQVQLDQKGVSLEVSQEARNWLAEKGYDRAMGARPMARVIQDNLKKPLANELLFGSLVDGGQVTVALDKEKNELTYGFQSAQKHKAEAAH
For B1, the “pattern of β-casein degradation products (processivity)” value was “promoted processive degradation of β-casein”.
